Reference: article PMC5318909, “Nucleobindin 1 binds to multiple types of pre-fibrillar amyloid and inhibits fibrillization” (Scientific Reports, 2017)

Assays:
[1] = target: the molecule itself; experiment: atomic force microscopy; mtNUCB1 alone plated on freshly cleaved mica, imaged in air in tapping mode; volume analysis of particles
[2] = target: Aβ42 synthetic peptide (UniProt P05067 672-713); experiment: cell-based or functional assay

B1: Ca2+-free mutant variant of soluble nucleobindin 1 (mtNUCB1) (natural protein, human, UniProt Q02818 31-461, looked up)
chain: RGAPNKEETPATESPDTGLYYHRYLQEVIDVLETDGHFREKLQAANAEDIKSGKLSRELDFVSHHVRTKLDELKRQEVSRLRMLLKAKMDAEQDPNVQVDHLNLLKQFEHLDPQNQHTFEARDLELLIQTATRDLAQYDAAHHEEFKRYEMLKEHERRRYLESLGEEQRKEAERKLEEQQRRHREHPKVNVPGSQAQLKEVWEELDGLDPNRFNPKTFFILHKINSDGVLDEQALEALFTKELEKVYDPKNEEDDMREMEEERLRMREHVMKNVKTNQDRLVTLEAFLASTQRKEFGDTGEGWETVEMHPAYTEEELRRFEEELAAREAELNAKAQRLSQETEALGRSQGRLEAQKRELQQAVLHMEQRKQQQQQQQGHKAPAAHPEGQLKFHPDTDDVPVPAPAGDQKEVDTSEKKLLERLPEVEVPQHL
notes: His tag cleaved with PreScission protease; also called CLABP; source: E. coli BL21 (DE3), purified (Ni-NTA, Superdex200 SEC); not shown: His6, N-terminal, cleaved
B1 was tested, and the “stoichiometry N” value [1] was 2 and the “MTT viability of PC12 cells treated for 24 h with 100 nM Aβ42 and increasing doses of mtNUCB1: IC50 of protection” value [2] was 1400 nM.
